Experimental data published in article PMC8881592.

Assay: time-resolved SAXS; rSslE 0.7 mg/ml in 20 mM citrate-phosphate buffer pH 4.4, 25 °C, stirred and circulated, data every 30 min over 11 h; COSMiCS decomposition into monomer and aggregate
Conditions: other: time-resolved SAXS

recombinant SslE from E. coli W (rSslE; residues 67 to 1497)
molar fraction of the aggregated species after 30 min: the aggregated species already represented 50% of the molar fraction
